Experimental data: patent US20190338048A1
Like-named read-outs stand apart in the source and are kept apart here. Blank lines part the entries; values can stand above or below the substance they belong to.

What was measured:
[1] = molecular target: CAT-2200 lambda light chain K129T_V133D; experiment: LCCA, SPR
[2] = molecular target: CAT-2200 lambda light chain K129T_V133D; experiment: LCCA, SPR; remark: listed apart in the source
[3] = molecular target: Pertuzumab kappa light chain V133D_Q160E; experiment: LCCA, SPR
[4] = molecular target: Pertuzumab kappa light chain V133D; experiment: LCCA, SPR
[5] = molecular target: Pertuzumab kappa light chain V133D_Q160E; experiment: LCCA, SPR; remark: listed apart in the source
[6] = molecular target: CAT-2200 lambda light chain E124Q_T131K_V133S; experiment: LCCA, SPR tag read-out
[7] = molecular target: CAT-2200 lambda light chain T131K_V133S; experiment: LCCA, SPR
[8] = molecular target: Pertuzumab kappa light chain Q124E_V133D_L135W; experiment: LCCA, SPR tag read-out
[9] = molecular target: Pertuzumab kappa light chain L135W_S176E_T178E; experiment: LCCA
[10] = molecular target: CAT-2200 lambda light chain Y178K; experiment: LCCA
[11] = molecular target: CAT-2200 lambda light chain E124Q_T131K; experiment: LCCA, SPR
[12] = molecular target: Pertuzumab kappa light chain S131D_V133G_T178F; experiment: LCCA, SPR
[13] = molecular target: Pertuzumab kappa light chain S176E_T178E; experiment: LCCA, SPR
[14] = molecular target: CAT-2200 lambda light chain E124Q_T131R; experiment: LCCA, SPR
[15] = molecular target: Pertuzumab kappa light chain S131E_V133G_T178F; experiment: LCCA, SPR
[16] = molecular target: Pertuzumab kappa light chain V133I_L135W_S176D_T178E; experiment: LCCA, SPR tag read-out
[17] = molecular target: Pertuzumab kappa light chain S131D_V133G_L135W_T178F; experiment: LCCA, SPR tag read-out
[18] = molecular target: CAT-2200 lambda light chain E124Q_T131R; experiment: LCCA, SPR tag read-out
[19] = molecular target: CAT-2200 lambda light chain E124Q_T131R; experiment: LCCA, SPR; remark: listed apart in the source
[20] = molecular target: CAT-2200 lambda light chain E124Q_T131R; experiment: LCCA, SPR tag read-out; remark: listed apart in the source
[21] = molecular target: Pertuzumab kappa light chain V133I_S176D_T178E; experiment: LCCA, SPR
[22] = molecular target: Pertuzumab kappa light chain S131D_V133G_T178F; experiment: LCCA, SPR; remark: listed apart in the source
[23] = molecular target: Pertuzumab kappa light chain S176E_T178E; experiment: LCCA, SPR; remark: listed apart in the source
[24] = molecular target: Pertuzumab kappa light chain S131E_V133G_T178F; experiment: LCCA, SPR; remark: listed apart in the source
[25] = molecular target: CAT-2200 lambda light chain E124Q_T131R; experiment: LCCA, SPR; remark: listed apart in the source
[26] = molecular target: Pertuzumab kappa light chain V133L_S176D_T178E; experiment: LCCA, SPR
[27] = molecular target: Pertuzumab kappa light chain V133L_S176D_T178E; experiment: LCCA, SPR; remark: listed apart in the source
[28] = molecular target: CAT-2200 light chain (lambda) E124Q_T131K_V133S, FLAG-tagged; experiment: LCCA
[29] = molecular target: Pertuzumab light chain (kappa) V133D, HA-tagged; experiment: LCCA
[30] = molecular target: Pertuzumab light chain (kappa) V133D_Q160E, HA-tagged; experiment: LCCA
[31] = molecular target: CAT-2200 light chain (lambda) E124Q_T131K, FLAG-tagged; experiment: LCCA
[32] = molecular target: Pertuzumab light chain (kappa) V133D, HA-tagged; experiment: LCCA; remark: listed apart in the source
[33] = molecular target: Pertuzumab light chain (kappa) V133D_Q160E, HA-tagged; experiment: LCCA; remark: listed apart in the source
[34] = molecular target: Pertuzumab light chain (kappa) V133D, HA-tagged; experiment: LCCA; remark: listed apart in the source
[35] = molecular target: Pertuzumab light chain (kappa) V133D_Q160E, HA-tagged; experiment: LCCA; remark: listed apart in the source
[36] = molecular target: Pertuzumab light chain (kappa) V133D, HA-tagged; experiment: LCCA; remark: listed apart in the source
[37] = molecular target: Pertuzumab light chain (kappa) V133D_Q160E, HA-tagged; experiment: LCCA; remark: listed apart in the source
[38] = molecular target: CAT-2200 light chain (lambda) T131K_V133S, FLAG-tagged; experiment: LCCA
[39] = molecular target: CAT-2200 light chain (lambda) T131K_V133S, FLAG-tagged; experiment: LCCA; remark: listed apart in the source
[40] = molecular target: CAT-2200 light chain (lambda) E124Q_T131K_V133S, FLAG-tagged; experiment: LCCA; remark: listed apart in the source
[41] = molecular target: Pertuzumab light chain (kappa) S176E_T178E, HA-tagged; experiment: LCCA
[42] = molecular target: Pertuzumab light chain (kappa) S131D_V133G_T178F, HA-tagged; experiment: LCCA
[43] = molecular target: Pertuzumab light chain (kappa) S176E_T178E, HA-tagged; experiment: LCCA; remark: listed apart in the source
[44] = molecular target: Pertuzumab light chain (kappa) S131E_V133G_T178F, HA-tagged; experiment: LCCA
[45] = molecular target: Pertuzumab light chain (kappa) V133I_S176D_T178E, HA-tagged; experiment: LCCA
[46] = molecular target: Pertuzumab light chain (kappa) S131D_V133G_T178F, HA-tagged; experiment: LCCA; remark: listed apart in the source
[47] = molecular target: Pertuzumab light chain (kappa) S176E_T178E, HA-tagged; experiment: LCCA; remark: listed apart in the source
[48] = molecular target: Pertuzumab light chain (kappa) S176D_T178E, HA-tagged; experiment: LCCA
[49] = molecular target: Pertuzumab light chain (kappa) V133L_S176D_T178E, HA-tagged; experiment: LCCA
[50] = molecular target: Pertuzumab light chain (kappa) V133I_S176E_T178E, HA-tagged; experiment: LCCA
[51] = molecular target: Pertuzumab light chain (kappa) V133I_S176D_T178E, HA-tagged; experiment: LCCA; remark: listed apart in the source
[52] = molecular target: Pertuzumab light chain (kappa) V133L_S176D_T178E, HA-tagged; experiment: LCCA; remark: listed apart in the source
[53] = molecular target: Pertuzumab light chain (kappa) V133L_S176D_T178E, HA-tagged; experiment: LCCA; remark: listed apart in the source
[54] = molecular target: Pertuzumab light chain (kappa) V133L_S176D_T178E, HA-tagged; experiment: LCCA; remark: listed apart in the source
[55] = molecular target: Pertuzumab light chain (kappa) V133L_S176D_T178E, HA-tagged; experiment: LCCA; remark: listed apart in the source
[56] = molecular target: Pertuzumab light chain (kappa) V133L_S176D_T178E, HA-tagged; experiment: LCCA; remark: listed apart in the source

H2L2:H2L1 normalized median ratio [25]: 9% | H2L2:H2L1 normalized median scalar value ln(r1/f1) [26]: 2.15 | H2L2:H2L1 normalized median scalar value ln(r1/f1) [27]: 2.3
Substance: Pertuzumab Fab heavy chain V177I_S188K

H2L2:H2L1 normalized median ratio (H2L1 share) [28]: 17% | H2L2:H2L1 normalized median scalar value ln(r1/f1) [29]: 1.18 | H2L2:H2L1 normalized median scalar value ln(r1/f1) [30]: 1.6 | H2L2:H2L1 normalized median ratio (H2L1 share) [31]: 31% | H2L2:H2L1 normalized median scalar value ln(r1/f1) [32]: 0.36 | H2L2:H2L1 normalized median scalar value ln(r1/f1) [33]: 0.81 | H2L2:H2L1 normalized median scalar value ln(r1/f1) [34]: 0.26 | H2L2:H2L1 normalized median scalar value ln(r1/f1) [35]: 0.76 | H2L2:H2L1 normalized median scalar value ln(r1/f1) [36]: 0.92 | H2L2:H2L1 normalized median scalar value ln(r1/f1) [37]: 1.5 | H2L2:H2L1 normalized median ratio (H2L1 share) [38]: 28%
Substance: Pertuzumab heavy chain Fab construct L143I_S186K

H2L2:H2L1 normalized median ratio (H2L1 share) [28]: 22% | H2L2:H2L1 normalized median scalar value ln(r1/f1) [29]: 0.82 | H2L2:H2L1 normalized median scalar value ln(r1/f1) [30]: 1.27 | H2L2:H2L1 normalized median ratio (H2L1 share) [39]: 26% | H2L2:H2L1 normalized median scalar value ln(r1/f1) [32]: 0.22 | H2L2:H2L1 normalized median scalar value ln(r1/f1) [33]: 0.41 | H2L2:H2L1 normalized median scalar value ln(r1/f1) [34]: 0.02 | H2L2:H2L1 normalized median scalar value ln(r1/f1) [35]: 0.22 | H2L2:H2L1 normalized median scalar value ln(r1/f1) [36]: 0.77 | H2L2:H2L1 normalized median scalar value ln(r1/f1) [37]: 1.05 | H2L2:H2L1 normalized median ratio (H2L1 share) [40]: 31%
Substance: Pertuzumab heavy chain Fab construct S186K

The next lines start with the substance.

Substance: CAT-2200 Fab heavy chain L143K
H1L1:H1L2 normalized median scalar value ln(r1/f1) [1]: 0.9 | H1L1:H1L2 normalized median scalar value ln(r1/f1) [2]: 1.55

Substance: Pertuzumab Fab heavy chain S186K
H2L2:H2L1 normalized median ratio [3]: 74% | H2L2:H2L1 normalized median scalar value ln(r1/f1) [3]: 1.05 | H2L2:H2L1 normalized median scalar value ln(r1/f1) [4]: 0.77 | H2L2:H2L1 normalized median scalar value ln(r1/f1) [5]: 0.22 | H2L2:H2L1 normalized median ratio [6]: 28% | H2L2:H2L1 normalized median ratio [7]: 26% | H2L2:H2L1 median scalar value [8]: 0.96 ln(ratio) | H2L2:H2L1 normalized median ratio [8]: 72%

Substance: Pertuzumab Fab heavy chain S188K
H2L2:H2L1 median scalar value [9]: 2.55 ln | H2L2:H2L1 normalized median ratio [9]: 92% | H2L2:H2L1 normalized median ratio [10]: 8% | H2L2:H2L1 normalized median ratio [11]: 15% | H2L2:H2L1 normalized median scalar value ln(r1/f1) [12]: 1.5 | H2L2:H2L1 normalized median scalar value ln(r1/f1) [13]: 2.71 | H2L2:H2L1 normalized median ratio [14]: 16% | H2L2:H2L1 normalized median ratio [15]: 85% | H2L2:H2L1 normalized median scalar value ln(r1/f1) [15]: 1.7 | H2L2:H2L1 median scalar value [16]: 2.03 ln(ratio) | H2L2:H2L1 normalized median ratio [16]: 88% | H2L2:H2L1 median scalar value [17]: 1.72 ln(ratio) | H2L2:H2L1 normalized median ratio [17]: 85% | H2L2:H2L1 normalized median ratio [18]: 15% | H2L2:H2L1 normalized median ratio [19]: 9% | H2L2:H2L1 normalized median ratio [20]: 12% | H2L2:H2L1 normalized median ratio [21]: 91% | H2L2:H2L1 normalized median scalar value ln(r1/f1) [21]: 2.33 | H2L2:H2L1 normalized median scalar value ln(r1/f1) [22]: 2.22 | H2L2:H2L1 normalized median scalar value ln(r1/f1) [23]: 2.75 | H2L2:H2L1 normalized median ratio [24]: 84% | H2L2:H2L1 normalized median scalar value ln(r1/f1) [24]: 1.67

Substance: Pertuzumab heavy chain Fab construct S188K
H2L2:H2L1 normalized median scalar value ln(r1/f1) [41]: 2.71 | H2L2:H2L1 normalized median scalar value ln(r1/f1) [42]: 1.5 | H2L2:H2L1 normalized median scalar value ln(r1/f1) [43]: 2.75 | H2L2:H2L1 normalized median scalar value ln(r1/f1) [44]: 1.67 | H2L2:H2L1 normalized median scalar value ln(r1/f1) [45]: 2.33 | H2L2:H2L1 normalized median scalar value ln(r1/f1) [46]: 2.22 | H2L2:H2L1 normalized median scalar value ln(r1/f1) [47]: 2.67 | H2L2:H2L1 normalized median scalar value ln(r1/f1) [48]: 1.41

Substance: Pertuzumab heavy chain Fab construct V177I_S188K
H2L2:H2L1 normalized median scalar value ln(r1/f1) [49]: 2.38 | H2L2:H2L1 normalized median scalar value ln(r1/f1) [50]: 2.63 | H2L2:H2L1 normalized median scalar value ln(r1/f1) [51]: 2.58 | H2L2:H2L1 normalized median scalar value ln(r1/f1) [52]: 2.15 | H2L2:H2L1 normalized median scalar value ln(r1/f1) [53]: 2.3 | H2L2:H2L1 normalized median scalar value ln(r1/f1) [54]: 1.64 | H2L2:H2L1 normalized median scalar value ln(r1/f1) [55]: 1.83 | H2L2:H2L1 normalized median scalar value ln(r1/f1) [56]: 0.55
